Experimental data taken from patent US20150125424A1 (MICREOS B V, published 2015).

How the values were obtained:
[1] = biological target: outer membrane protein C (OmpC) of S. Typhimurium DT7155 (S. Typhimurium DT7155); experiment: control of competition in pull down assay; S. Tm. DT7155 wt cells pre-incubated with HGFP, then phage S16 added; value is remaining S16 adsorption
[2] = biological target: T1, Phage S16 (whole phage particle) (Phage S16, UniProt M1EAS5 1-638; M1EBB2 1-249); experiment: pull down assay (phage adsorption) on E. coli K-12 wt and E. coli K-12 ΔompC::ompC(K-12) cells
T1 construct: The whole virion stood in the assay; All other virion proteins are left out; also called bacteriophage S16; CBS130493
T1 sequence 1: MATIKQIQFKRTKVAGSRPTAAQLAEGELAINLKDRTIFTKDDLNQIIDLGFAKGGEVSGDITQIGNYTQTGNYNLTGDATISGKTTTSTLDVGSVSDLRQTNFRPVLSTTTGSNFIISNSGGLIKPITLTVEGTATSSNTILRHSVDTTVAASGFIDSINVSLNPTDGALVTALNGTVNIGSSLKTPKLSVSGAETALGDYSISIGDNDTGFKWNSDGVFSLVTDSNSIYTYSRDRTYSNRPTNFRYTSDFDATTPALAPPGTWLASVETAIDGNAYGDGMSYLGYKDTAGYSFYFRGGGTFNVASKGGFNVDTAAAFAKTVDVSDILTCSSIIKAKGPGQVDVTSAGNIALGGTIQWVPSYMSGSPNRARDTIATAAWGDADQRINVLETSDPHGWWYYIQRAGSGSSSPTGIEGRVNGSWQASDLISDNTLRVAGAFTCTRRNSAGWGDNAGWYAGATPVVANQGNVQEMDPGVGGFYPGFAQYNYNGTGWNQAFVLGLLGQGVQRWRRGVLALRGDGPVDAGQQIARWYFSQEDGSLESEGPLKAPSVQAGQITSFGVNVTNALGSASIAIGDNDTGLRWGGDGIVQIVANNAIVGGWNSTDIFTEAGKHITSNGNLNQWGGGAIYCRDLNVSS
T1 sequence 2: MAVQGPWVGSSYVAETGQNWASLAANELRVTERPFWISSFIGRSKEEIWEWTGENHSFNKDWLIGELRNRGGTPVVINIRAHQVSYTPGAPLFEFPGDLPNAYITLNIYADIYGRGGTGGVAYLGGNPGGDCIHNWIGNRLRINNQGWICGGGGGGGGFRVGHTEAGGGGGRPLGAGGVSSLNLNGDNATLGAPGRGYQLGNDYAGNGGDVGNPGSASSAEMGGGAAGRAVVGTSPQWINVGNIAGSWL

## HGFP (6xHis-tagged GFP alone, control)
[1]
  adsorption ratio of S16 after pre-incubation: 93.8%

B1: OmpC of E. coli K-12 (receptor)
chain: AEVYNKDGNKLDLYGKVDGLHYFSDNKDVDGDQTYMRLGFKGETQVTDQLTGYGQWEYQIQGNSAENENNSWTRVAFAGLKFQDVGSFDYGRNYGVVYDVTSWTDVLPEFGGDTYGSDNFMQQRGNGFATYRNTDFFGLVDGLNFAVQYQGKNGNPSGEGFTSGVTNNGRDALRQNGDGVGGSITYDYEGFGIGGAISSSKRTDAQNTAAYIGNGDRAETYTGGLKYDANNIYLAAQYTQTYNATRVGSLGWANKAQNFEAVAQYQFDFGLRPSLAYLQSKGKNLGRGYDDEDILKYVDVGATYYFNKNMSTYVDYKINLLDDNQFTRDAGINTDNIVALGLVYQF
notes: whole, on cells; Presented on E. coli K-12 wt cells, or expressed in trans from pBAD18 Amp^r in E. coli K-12 ΔompC; also called ompC(K-12)
[2]
  binding result: no binding
